# Biological target: SARS-CoV-2 spike with Y453F (SARS-CoV-2) (UniProt P0DTC2)
# Test: cell-based or functional assay
substance,measurement,value
REGN10987 (antibody),"decrease in neutralization, live virus or pseudovirus (fold decrease)",4

# — patent US20240400652A1
